These results are taken from PMC8874411, “Biochemical and Structural Insights into the Winged Helix Domain of P150, the Largest Subunit of the Chromatin Assembly Factor 1”.

Holding throughout (details): protein: recombinant; tags: C-terminal His6 (pETM13); blunt
Data set [1] has as its target T1, P150 721-860 (WHD) (Homo sapiens, UniProt Q13111 721-860). Kind of data set: EMSA; about 21 uM DNA; EMSA: 20 mM Tris-HCl, 100 mM NaCl, 1 mM DTT, pH 7.5, 45 min on ice; 6% PAGE in 0.5X TBE on ice. (In general: Mobility shift assays separate free from complexed probe on a gel.)
In data set [2] the target is T1, P150 721-860 (WHD). Put plainly: EMSA; 1 uM DNA, Sybr Gold; fit with Hill slope; EMSA: 20 mM Tris-HCl, 100 mM NaCl, 1 mM DTT, pH 7.5, 45 min on ice; 6% PAGE in 0.5X TBE on ice.
For the next data set, the target named is P150 575-860 (ED + WHD) (Homo sapiens, UniProt Q13111 575-860). Put plainly: EMSA; 2 uM DNA, 0-25 molar ratio; no complex detected; EMSA: 20 mM Tris-HCl, 100 mM NaCl, 1 mM DTT, pH 7.5, 45 min on ice; 6% PAGE in 0.5X TBE on ice.
Sequence of P150 575-860 (ED + WHD) (Q13111 575-860): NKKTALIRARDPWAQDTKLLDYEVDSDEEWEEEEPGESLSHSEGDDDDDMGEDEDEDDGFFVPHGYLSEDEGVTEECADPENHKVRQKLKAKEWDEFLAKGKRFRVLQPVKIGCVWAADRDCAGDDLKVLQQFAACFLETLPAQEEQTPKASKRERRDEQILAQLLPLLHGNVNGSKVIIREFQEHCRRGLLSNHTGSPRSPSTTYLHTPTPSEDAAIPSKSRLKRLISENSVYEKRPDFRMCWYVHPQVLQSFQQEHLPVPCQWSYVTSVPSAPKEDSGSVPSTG
In data set [3] the target is T1, P150 721-860 (WHD). Kind of data set: EMSA; 21 uM DNA, 0-15 molar ratio, EtBr; EMSA: 20 mM Tris-HCl, 100 mM NaCl, 1 mM DTT, pH 7.5, 45 min on ice; 6% PAGE in 0.5X TBE on ice.

T1 sequence (Q13111 721-860): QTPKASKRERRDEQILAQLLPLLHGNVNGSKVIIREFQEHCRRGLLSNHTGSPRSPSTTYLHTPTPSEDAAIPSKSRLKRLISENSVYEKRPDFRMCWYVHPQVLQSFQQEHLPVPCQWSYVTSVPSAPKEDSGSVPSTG

B1: 16 bp GC rich dsDNA (dsDNA)
DNA 1: ATCGCCCGCGCACGCA
DNA 2: TGCGTGCGCGGGCGAT
Consider B1, for which, in the data set with P150 721-860 (WHD) [1], the binding result was “binds”.

B2: 16 bp AT rich dsDNA (dsDNA)
DNA 1: ATAATCGATATTCGTT
DNA 2: AACGAATATCGATTAT
Consider B2, for which, in the data set with P150 721-860 (WHD) [1], the binding result is reported as “binds”.

B3: 58 bp dsDNA (dsDNA)
DNA 1: ATACATTTTATGACTGGAAACTTTTTTGTACAACACTCCAATAAACATTTTGATTTTA
DNA 2: TAAAATCAAAATGTTTATTGGAGTGTTGTACAAAAAAGTTTCCAGTCATAAAATGTAT
One may read the Kd as the equilibrium constant for the complex coming apart. Take B3: the Kd with P150 721-860 (WHD) [2] was 10.4 ± 0.5 µM. Also, in the data set with P150 575-860 (ED + WHD), the binding result is “no binding”.

B4: 16 bp dsDNA (dsDNA)
DNA 1: TGCTACCGATCGATAC
DNA 2: GTATCGATCGGTAGCA
Take B4: the binding result with P150 721-860 (WHD) [3] is “binds”.
